# B1: B8-dIgA1 (antibody, V domains shown)
# VH: EVQLVQSGAEVKKPGSSVKVSCKASGGTFSNYGISWVRQAPGQGLEWMGRILPTFGTANSAQKFQGRVTITADESTGTAYMELRSLRSEDTAVYYCAKEGLAFLGYGMDVWGQGTTVTVSS
# VL: EIVLTQSPGTLSLSPGERATLSCRASQSVSSYLAWYQQKPGQAPRLLIYDASNRATGIPARFIGSGSGTDFTLTISSLEPEDFAVYFCQQRSNWPLTFGGGTKVEIK
# B2: B8-dIgA2 (antibody, V domains shown)
# VH: B1 VH
# VL: B1 VL
# B3: B8-mIgA1 (antibody, V domains shown)
# VH: B1 VH
# VL: B1 VL
# B4: B8-mIgA2 (antibody, V domains shown)
# VH: B1 VH
# VL: B1 VL
# Target: recombinant SARS-CoV-2 RBD (Sino Biological) (SARS-CoV-2, UniProt P0DTC2)
# Test: cell-based or functional assay
Binder,"IC50, neutralisation of SARS-CoV-2 pseudovirus in HEK293T-ACE2 cells [µg/mL]","IC90, neutralisation of SARS-CoV-2 pseudovirus in HEK293T-ACE2 cells [µg/mL]"
B1,0.0048,0.033
B2,0.012,0.021
B3,0.012,0.052
B4,0.0057,0.014
